Numbering of substitutions follows the chain as printed.

The values that follow come from patent publication EP4786492A1.

B1: mab014 scFv-hFc (Fc fusion, part only; not given: Linker and human IgG1 Fc, not shown: a dimerising Fc or GST)
chain, part: DIQMTQSSSSFSVSLGDRVTITCKASEDIYNRLAWYQQKPGNTPRLLISGATSLETGVPSRFSGSGSGKDFTLSITSLQTEDVATYYCQQYWSLPWTFGGGTKLEIKEVQLHQSGPELVKPGTSVKISCKASGYTFTDYYMNWVKQSHGKSLEWIGDINPNHGDTGYNQKFTGKATLTVDKSSSTAYMELRSLTSEDSAVYYCARNFFYYGTTYGWYFDVWGTGTTVTVSS
B2: Hab006VL4VH2-hFc (Fc fusion, part only; not given: Linker and human IgG1 Fc, not shown: a dimerising Fc or GST)
chain, part: DIVMTQSPDSLAVSLGERATINCRATKSISKYLAWYQQKPGQTNKLLIFSGSTLQSGVPDRFSGSGSGTDFTLTISSLQAEDVAVYYCQQHHEYPYTFGGGTKVEIKEVQLVQSGAEVKKPGASVKVSCKASGYTFTSYWMHWVRQAPGQRLEWMGVIDPSDSLANYNQEFKGRVTLTVDTSASTAYMELSSLRSEDTAVYYCARDSTVVAPMDYWGQGTTVTVSS
B3: mab006 scFv-hFc (Fc fusion, part only; not given: linker and human IgG1 Fc, not shown: a dimerising Fc or GST)
chain, part: DVQITQSPSYLAASPGETITINCRATKSISKYLAWYQEKPGKTNKLLIFSGSTLQSGIPSRFRGSGSGTDFTLTISSLEPEDFAMYYCQQHHEYPYTFGGGTKLEIKQVQLQQPGAELVRPGTSVKLSCKASGYTFTSYWMHWVRQRPGQGLEWIGVIDPSDSLANYNQEFKGKATLTVDTSSSTAYMQLSSLTSEDSAVYYCARDSTVVAPMDYWGQGTSVTVSS
B4: mab008 scFv-hFc (Fc fusion, part only; not given: linker and human IgG1 Fc, not shown: a dimerising Fc or GST)
chain, part: DIVMTQSQKFMSTSVGDRVSITCKASQNVGTAVAWYQQKPGQSPKLLIFSASIRYTGVPDRFTGSGSGTDFTLTISNMQSEDLADYFCQQYSSSPYTFGGGTKLEIKEVQLQQSGPVLVKPGASVKMSCKASGYTFTDYYMNWVKRSHGKSLEWIGIINPYNGGTSYNQKFRGKATLTVDKSSNTAYMELNSLTSEDSAVYYCSRYDYDYDVEGAMDYWGQGTSVTVSS
B5: mab015 scFv-hFc (Fc fusion, part only; not given: linker and human IgG1 Fc, not shown: a dimerising Fc or GST)
chain, part: NIVMTQSPKSMSMSVGERVTLSCKASENVGTYVSWFQQKPEQSPKLLIYGASNRYTGVPDRFTGSGSATDFTLTISSVQAEDLADYHCGQFYSFPCTFGGGTKLEIKEVKLEESGGGLVQPGGSMKLSCVASGITFSNFWMNWVRQSPEKGLEWVAQIRLKSDDYATHYAESVKGRFTISRDDSKGSVYLQMNNLRTEDTGIHYCTTGYYFDYWGQGTTLTVSS
B6: mab009 scFv-hFc (Fc fusion, part only; not given: Linker and human IgG1 Fc, not shown: a dimerising Fc or GST)
chain, part: DIVMTQSPATLSVTPGDRVSLSCRASQTISDYLHWYQQRSHESPRLLIKYASQSISGIPSRFSGSGSGSDFTLSINSVEPEDVGVYYCQNGHSFPLTFGAGTKLELKEVQLQQSGTVLARPGASVKMSCKTSGYTFTSYWMHWVKQSPGQGLEWIGTIYPGNSDTRYNQKFKDKAYVTAVTSASTAYMELSSLTNEESAVYYCTRSYDYGDLDYWGQGTTLTVSS
B7: Hab009VL1aVH1-hFc (Fc fusion, part only; not given: Linker and human IgG1 Fc, not shown: a dimerising Fc or GST)
chain, part: DIVMTQSPLSLPVTPGEPASISCRASQTISDYLHWYLQKPGQSPQLLIKYASQSISGVPDRFSGSGSGSDFTLKISRVEAEDVGVYYCQQGHSFPLTFGQGTKLEIKEVQLVQSGAEVKKPGASVKVSCKASGYTFTSYWMHWVRQAPGQRLEWMGTIYPGNSDTRYNQKFKDRVTITADTSASTAYMELSSLRSEDTAVYYCTRSYDYGDLDYWGQGTTVTVSS
B8: Hab009VL2aVH1-hFc (Fc fusion, part only; not given: Linker and human IgG1 Fc, not shown: a dimerising Fc or GST)
chain, part: B7 chain, part with Q45R, S69T
B9: Hab015VL4VH6b-hFc (Fc fusion, part only; not given: VL-VH linker and human IgG1 Fc, not shown: another chain or arm of the molecule; a dimerising Fc or GST; small tags and cut ends)
VL: NIVLTQSPATLSLSPGERATLSCKASENVGTYVSWFQQKPGQSPRLLIYGASNRYTGIPARFSGSGSGTDFTLTISSLEPEDFAVYYCGQFYSFPSTFGGGTKVEIK
VH: EVQLVESGGGLVKPGGSLRLSCAASGITFSNFWMNWVRQAPEKGLEWVGQIRLKSDQYATHYAESVKGRFTISREDSKNTVYLQMNSLKTEDTAVYYCTTGYYFDYWGQGTTVTVSS
B10: mab013 scFv-hFc (Fc fusion, part only; not given: linker and human IgG1 Fc, not shown: a dimerising Fc or GST)
scFv, part: DIVLTQSPASLAVSLGQRATISCRASKSVSTSGFSYMHWYQQKPGQPPKLLIYLASNLESGVPARFSGSGSGTDFTLNIHPVEEEDAATYYCQHSRELPFTFGSGTKLEIKQVQLQQSGAELVKPGASVRISCKASGYAFSNYWINWVKQRPGKGLEWIGQINPGDGDTIYNGKFKGKATLTADKSSSTAYMQLSSLTSEDSAVYFCEREGRNYGDFAYWGQGTTLTVSS

Chain of human DLL3 protein (extracellular segment, His tag) (human) (Q9NYJ7 27-492): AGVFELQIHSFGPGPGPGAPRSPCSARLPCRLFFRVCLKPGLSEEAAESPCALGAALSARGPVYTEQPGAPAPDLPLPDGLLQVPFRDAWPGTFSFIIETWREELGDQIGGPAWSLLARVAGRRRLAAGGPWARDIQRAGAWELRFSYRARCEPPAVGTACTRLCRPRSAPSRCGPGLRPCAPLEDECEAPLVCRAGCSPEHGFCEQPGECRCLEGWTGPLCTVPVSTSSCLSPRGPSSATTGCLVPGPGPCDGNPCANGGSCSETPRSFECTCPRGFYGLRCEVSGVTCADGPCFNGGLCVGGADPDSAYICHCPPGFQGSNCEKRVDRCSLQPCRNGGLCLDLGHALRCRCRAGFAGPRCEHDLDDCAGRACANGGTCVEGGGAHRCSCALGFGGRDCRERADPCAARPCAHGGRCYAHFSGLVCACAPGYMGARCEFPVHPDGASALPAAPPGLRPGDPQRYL

In the first assay the target is DLL3 endogenously expressed on NCI-H82 cells (UniProt Q9NYJ7). As to the kind of experiment: FACS on NCI-H82 cells; antibody 4 nM.
Chain of DLL3 endogenously expressed on NCI-H82 cells (Q9NYJ7 27-618): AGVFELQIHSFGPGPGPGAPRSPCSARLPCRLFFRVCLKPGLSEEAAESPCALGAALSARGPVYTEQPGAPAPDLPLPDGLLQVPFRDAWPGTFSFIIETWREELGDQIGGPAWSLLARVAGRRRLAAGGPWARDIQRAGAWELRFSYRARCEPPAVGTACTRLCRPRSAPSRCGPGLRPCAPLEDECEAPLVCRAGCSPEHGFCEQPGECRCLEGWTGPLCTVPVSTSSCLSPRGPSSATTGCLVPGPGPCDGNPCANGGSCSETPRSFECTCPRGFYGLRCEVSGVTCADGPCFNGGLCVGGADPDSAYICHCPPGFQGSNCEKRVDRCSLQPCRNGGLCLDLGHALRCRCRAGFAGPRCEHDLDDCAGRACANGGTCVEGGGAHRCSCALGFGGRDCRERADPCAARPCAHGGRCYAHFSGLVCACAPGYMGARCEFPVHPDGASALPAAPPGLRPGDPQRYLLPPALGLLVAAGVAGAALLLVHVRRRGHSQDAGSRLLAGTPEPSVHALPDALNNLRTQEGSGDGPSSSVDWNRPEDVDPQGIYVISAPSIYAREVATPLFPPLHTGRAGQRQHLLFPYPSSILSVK
Take B1: the MFI amounted to 702.
Still for that read-out and setting: next, B2: 445; B3: 457; B4: 373.
Still for that read-out and setting: under B5 stands 1190; under B6, 737.
The same measure, in the same setting: next, B7: 759; B8: 747.

A further assay shares this target. Kind of assay: FACS on NCI-H82 cells; antibody 0.0064 nM.
For the molecule B1, the MFI came out at 134.
Same read-out and setting: under B2 stands 151.
Still for that read-out and setting: under B3 stands 177; under B4, 94; under B5, 135.
The same measure, in the same setting: under B6 stands 175; under B7, 180.
As for B8, the MFI was determined as 185.

For the next assay the target is unchanged. As to the kind of experiment: FACS on NCI-H82 cells; antibody 0.032 nM.
Take B1: the MFI was 213.
For B2, the MFI is 250.
Same read-out and setting: under B3 stands 292; under B4, 95.
Still for that read-out and setting: under B5 stands 218.
The same measure, in the same setting: next, B6: 346; B7: 379; B8: 377.

A further assay shares this target. Kind of assay: FACS on NCI-H82 cells; antibody 0.8 nM.
Take B1: the MFI came to 667.
B2 displayed an MFI of 429.
B3 yielded an MFI of 422.
The same measure, in the same setting: under B4 stands 176; under B5, 1120.
Still for that read-out and setting: under B6 stands 674; under B7, 722; under B8, 709.

The target is the same in the next assay. As to the kind of experiment: FACS on NCI-H82 cells; antibody 20 nM.
With B1, the MFI stood at 829.
On the same count and under the same terms, under B2 stands 494; under B3, 488.
The same measure, in the same setting: under B4 stands 438.
On the same count and under the same terms, under B5 stands 1360; under B6, 833; under B7, 815.
Consider B8, for which the MFI came out at 789.

The next assay concerns the target human DLL3 protein (extracellular segment, His tag) (human) (UniProt Q9NYJ7). As to the kind of experiment: SPR (Biacore 8K), antibody captured on Protein A chip, DLL3 antigen in solution, 1:1 Langmuir fit. In general terms: In SPR one partner is held on a chip, and binding of the other changes the refractive index at the surface.
As for B1, the Kd amounted to 0.0547 nM, the off-rate constant (koff) was found to be 4.64e-05 s⁻¹ and the kon amounted to 848000 M⁻¹ s⁻¹.
The matching figures for B9: 0.0131 nM, 2.5e-05 s⁻¹ and 1.91e+06 M⁻¹ s⁻¹.
The matching figures for B3: 1.25 nM, 0.000203 s⁻¹ and 162000 M⁻¹ s⁻¹.
The matching figures for B10: 0.264 nM, 0.00082 s⁻¹ and 3.11e+06 M⁻¹ s⁻¹.
In turn, B4 had a Kd of 0.381 nM, a koff of 0.00034 s⁻¹ and a kon of 891000 M⁻¹ s⁻¹.
B5 displayed a dissociation constant (Kd) of 0.000597 nM, a koff of 1.46e-06 s⁻¹ and a kon of 2.45e+06 M⁻¹ s⁻¹.
The matching figures for B6: 0.216 nM, 0.00132 s⁻¹ and 6.13e+06 M⁻¹ s⁻¹.

Another assay addresses DLL3 endogenously expressed on NCI-H82 cells (UniProt Q9NYJ7). Kind of assay: FACS on NCI-H82 cells; antibody 0.00128 nM.
With B1, the MFI came to 112.
The same measure, in the same setting: under B2 stands 117.
The same measure, in the same setting: under B3 stands 123; under B4, 113.
With B5, the MFI is 113.
The same measure, in the same setting: under B6 stands 123; under B7, 122.
The same measure, in the same setting: under B8 stands 124.

Another assay has the same target. As to the kind of experiment: FACS on NCI-H82 cells; antibody 100 nM.
The molecule B1 came in with an MFI of 1190.
B2 registered an MFI of 588.
The molecule B3 showed an MFI of 586.
Same read-out and setting: next, B4: 537.
Same read-out and setting: under B5 stands 1680; under B6, 968.
Still for that read-out and setting: next, B7: 888; B8: 870.

A further assay has the same target. As to the kind of experiment: FACS on NCI-H82 cells; antibody 0.16 nM.
With B1, the MFI amounted to 429.
The same measure, in the same setting: next, B2: 385; B3: 416; B4: 107.
On the same count and under the same terms, next, B5: 588.
Still for that read-out and setting: next, B6: 673; B7: 673; B8: 671.

For orientation: Kd means the constant that tells how readily two partners part at equilibrium. As usually defined, the koff is the first-order rate constant of dissociation. The low end stands for a long-lived complex, the high end for a short-lived complex. In general, kon refers to the rate constant with which the complex forms. Low readings indicate slow association, high ones fast association.
